Measured values published in IntAct's records for PubMed 20562859.

B1: Gamma-aminobutyric acid receptor-associated protein (Homo sapiens), O95166 (parent)
chain: MKFVYKEEHPFEKRRSEGEKIRKKYPDRVPVIVEKAPKARIGDLDKKKYLVPSDLTVGQFYFLIRKRIHLRAEDALFFFVNNVIPPTSATMGQLYQEHHEEDFFLYIAYSDESVYGL
partner: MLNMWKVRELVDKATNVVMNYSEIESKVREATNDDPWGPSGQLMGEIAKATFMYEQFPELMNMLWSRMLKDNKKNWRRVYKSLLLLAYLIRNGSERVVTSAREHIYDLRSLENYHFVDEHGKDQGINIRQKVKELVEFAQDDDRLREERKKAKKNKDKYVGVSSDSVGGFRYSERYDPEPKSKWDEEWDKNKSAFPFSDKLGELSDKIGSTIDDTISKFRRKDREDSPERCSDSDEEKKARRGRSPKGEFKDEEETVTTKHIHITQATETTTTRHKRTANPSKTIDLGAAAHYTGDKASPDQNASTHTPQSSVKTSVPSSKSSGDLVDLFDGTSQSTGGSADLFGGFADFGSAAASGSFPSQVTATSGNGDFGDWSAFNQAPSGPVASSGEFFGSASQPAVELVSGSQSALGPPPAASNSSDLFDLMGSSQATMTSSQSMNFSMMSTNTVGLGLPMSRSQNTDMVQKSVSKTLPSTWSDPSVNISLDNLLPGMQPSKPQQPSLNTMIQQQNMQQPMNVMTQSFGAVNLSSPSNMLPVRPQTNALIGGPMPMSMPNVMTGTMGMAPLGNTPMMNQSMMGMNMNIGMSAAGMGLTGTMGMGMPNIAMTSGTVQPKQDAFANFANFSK
B2: Gamma-aminobutyric acid receptor-associated protein (Homo sapiens), O95166 (parent)
chain: B1 chain
partner: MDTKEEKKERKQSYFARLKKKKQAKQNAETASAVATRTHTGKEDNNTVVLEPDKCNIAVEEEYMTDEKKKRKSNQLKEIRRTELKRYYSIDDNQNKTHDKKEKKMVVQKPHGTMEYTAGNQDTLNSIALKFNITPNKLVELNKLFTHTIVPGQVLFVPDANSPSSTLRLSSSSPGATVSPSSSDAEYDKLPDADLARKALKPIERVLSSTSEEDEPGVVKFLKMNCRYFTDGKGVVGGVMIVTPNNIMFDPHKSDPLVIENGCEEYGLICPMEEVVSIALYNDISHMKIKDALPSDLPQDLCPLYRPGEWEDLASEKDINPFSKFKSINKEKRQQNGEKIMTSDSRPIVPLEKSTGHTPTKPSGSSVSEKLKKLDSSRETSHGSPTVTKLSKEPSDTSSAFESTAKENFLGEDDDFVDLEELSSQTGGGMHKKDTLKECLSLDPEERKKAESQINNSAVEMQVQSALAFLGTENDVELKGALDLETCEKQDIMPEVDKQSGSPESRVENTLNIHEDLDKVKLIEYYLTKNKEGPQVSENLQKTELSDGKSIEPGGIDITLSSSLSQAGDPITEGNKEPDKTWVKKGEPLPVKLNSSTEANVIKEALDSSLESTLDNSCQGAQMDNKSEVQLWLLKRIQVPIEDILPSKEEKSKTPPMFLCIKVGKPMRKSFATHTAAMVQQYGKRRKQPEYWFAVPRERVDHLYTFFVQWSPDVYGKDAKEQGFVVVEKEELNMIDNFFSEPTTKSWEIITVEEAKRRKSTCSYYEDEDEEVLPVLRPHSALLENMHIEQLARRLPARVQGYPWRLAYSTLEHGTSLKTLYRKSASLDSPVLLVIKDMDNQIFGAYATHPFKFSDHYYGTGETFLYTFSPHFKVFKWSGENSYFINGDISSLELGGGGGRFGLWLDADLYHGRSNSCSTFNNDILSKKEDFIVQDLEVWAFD
B3: Gamma-aminobutyric acid receptor-associated protein (Homo sapiens), O95166 (parent)
chain: B1 chain
partner: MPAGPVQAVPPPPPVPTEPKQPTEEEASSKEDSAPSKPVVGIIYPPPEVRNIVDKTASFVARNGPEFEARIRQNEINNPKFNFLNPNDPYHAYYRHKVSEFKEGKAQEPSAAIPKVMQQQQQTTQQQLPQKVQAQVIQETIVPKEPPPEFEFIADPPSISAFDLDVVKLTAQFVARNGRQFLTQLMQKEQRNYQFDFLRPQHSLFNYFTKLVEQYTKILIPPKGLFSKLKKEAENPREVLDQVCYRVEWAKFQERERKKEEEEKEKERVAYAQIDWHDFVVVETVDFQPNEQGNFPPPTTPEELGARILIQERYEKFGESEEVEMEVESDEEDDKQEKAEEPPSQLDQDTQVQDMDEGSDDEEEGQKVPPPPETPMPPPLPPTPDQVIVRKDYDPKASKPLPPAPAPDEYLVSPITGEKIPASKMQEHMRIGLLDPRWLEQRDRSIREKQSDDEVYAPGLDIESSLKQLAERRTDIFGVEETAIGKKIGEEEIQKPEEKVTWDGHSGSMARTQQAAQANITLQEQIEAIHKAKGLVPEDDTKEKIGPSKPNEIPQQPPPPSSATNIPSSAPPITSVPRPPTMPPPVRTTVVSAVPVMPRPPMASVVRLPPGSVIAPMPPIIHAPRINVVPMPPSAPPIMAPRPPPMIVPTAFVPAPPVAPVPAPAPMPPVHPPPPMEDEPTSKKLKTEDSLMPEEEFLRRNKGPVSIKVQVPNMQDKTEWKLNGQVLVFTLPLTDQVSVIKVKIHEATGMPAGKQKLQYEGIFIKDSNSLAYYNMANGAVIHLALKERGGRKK
B4: Gamma-aminobutyric acid receptor-associated protein (Homo sapiens), O95166 (parent)
chain: B1 chain
partner: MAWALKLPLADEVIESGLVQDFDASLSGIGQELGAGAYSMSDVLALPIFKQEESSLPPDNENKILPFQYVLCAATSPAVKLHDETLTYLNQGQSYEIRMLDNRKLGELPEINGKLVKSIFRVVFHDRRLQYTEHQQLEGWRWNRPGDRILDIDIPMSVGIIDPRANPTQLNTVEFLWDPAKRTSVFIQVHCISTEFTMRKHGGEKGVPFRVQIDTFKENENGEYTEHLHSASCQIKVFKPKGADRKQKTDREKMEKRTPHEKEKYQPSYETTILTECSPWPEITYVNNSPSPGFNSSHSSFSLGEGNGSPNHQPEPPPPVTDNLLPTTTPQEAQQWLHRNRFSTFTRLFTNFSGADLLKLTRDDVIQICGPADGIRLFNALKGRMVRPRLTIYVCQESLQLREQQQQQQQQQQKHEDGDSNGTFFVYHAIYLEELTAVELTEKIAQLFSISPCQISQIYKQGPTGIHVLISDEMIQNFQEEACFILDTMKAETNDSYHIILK
B5: Gamma-aminobutyric acid receptor-associated protein (Homo sapiens), O95166 (parent)
chain: B1 chain
B6: Gamma-aminobutyric acid receptor-associated protein (Homo sapiens), O95166 (parent)
chain: B1 chain
partner: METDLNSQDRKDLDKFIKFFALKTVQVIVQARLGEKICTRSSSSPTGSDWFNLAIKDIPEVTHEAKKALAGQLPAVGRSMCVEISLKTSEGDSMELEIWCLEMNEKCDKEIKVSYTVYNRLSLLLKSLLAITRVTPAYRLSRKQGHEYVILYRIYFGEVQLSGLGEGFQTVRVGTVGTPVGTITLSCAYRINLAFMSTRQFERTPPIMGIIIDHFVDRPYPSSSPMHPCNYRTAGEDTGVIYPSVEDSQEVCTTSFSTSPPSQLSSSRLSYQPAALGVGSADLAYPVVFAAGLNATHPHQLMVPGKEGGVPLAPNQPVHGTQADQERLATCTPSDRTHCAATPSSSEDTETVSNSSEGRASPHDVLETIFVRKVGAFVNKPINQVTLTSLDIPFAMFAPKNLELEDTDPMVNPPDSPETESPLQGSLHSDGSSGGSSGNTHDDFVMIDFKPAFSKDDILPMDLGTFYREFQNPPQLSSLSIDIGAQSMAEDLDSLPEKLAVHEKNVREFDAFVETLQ
B7: Gamma-aminobutyric acid receptor-associated protein (Homo sapiens), O95166 (parent)
chain: B1 chain
partner: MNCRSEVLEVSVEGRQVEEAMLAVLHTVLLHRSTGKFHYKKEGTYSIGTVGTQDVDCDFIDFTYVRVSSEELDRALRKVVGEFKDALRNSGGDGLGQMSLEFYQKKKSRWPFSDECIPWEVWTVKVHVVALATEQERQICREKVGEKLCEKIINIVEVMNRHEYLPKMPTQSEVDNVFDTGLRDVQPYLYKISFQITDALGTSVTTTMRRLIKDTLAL

Variants of: B1
Details: with epn4_human CLINT1, Q14677

effect of a mutation on the interaction	Variant
decreasing interaction	Y49A;L50A

Variants of: B2
Details: with ncoa7_human NCOA7, Q8NI08

effect of a mutation on the interaction	Variant
decreasing interaction	Y49A;L50A

Variants of: B3
Details: with sf3a1_human SF3A1, Q15459

effect of a mutation on the interaction	Variant
decreasing interaction	Y49A;L50A

Variants of: B4
Details: with tfcp2_human TFCP2, Q12800

effect of a mutation on the interaction	Variant
decreasing interaction	Y49A;L50A
increasing interaction	R71A

Variants of: B5
Details: with atg2a_human ATG2A

effect of a mutation on the interaction	Variant
decreasing interaction	Y49A;L50A

Variants of: B5
Details: with atg3_human ATG3, Q9NT62
Chain of atg3_human ATG3, Q9NT62 (Q9NT62 whole entry): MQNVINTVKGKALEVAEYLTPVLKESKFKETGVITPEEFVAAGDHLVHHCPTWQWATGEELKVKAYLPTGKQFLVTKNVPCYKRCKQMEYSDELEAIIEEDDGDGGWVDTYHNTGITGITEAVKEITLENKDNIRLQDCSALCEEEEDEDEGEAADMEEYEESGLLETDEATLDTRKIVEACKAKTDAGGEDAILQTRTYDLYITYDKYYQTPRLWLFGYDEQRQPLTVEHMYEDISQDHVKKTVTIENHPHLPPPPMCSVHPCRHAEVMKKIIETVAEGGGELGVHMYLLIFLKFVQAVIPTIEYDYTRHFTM

effect of a mutation on the interaction	Variant
disrupting interaction	Y49A;L50A

Variants of: B5
Details: with echa_human HADHA

effect of a mutation on the interaction	Variant
decreasing interaction	Y49A;L50A

Variants of: B5
Details: with nedd4_human NEDD4, P46934
Chain of nedd4_human NEDD4, P46934 (P46934 whole entry): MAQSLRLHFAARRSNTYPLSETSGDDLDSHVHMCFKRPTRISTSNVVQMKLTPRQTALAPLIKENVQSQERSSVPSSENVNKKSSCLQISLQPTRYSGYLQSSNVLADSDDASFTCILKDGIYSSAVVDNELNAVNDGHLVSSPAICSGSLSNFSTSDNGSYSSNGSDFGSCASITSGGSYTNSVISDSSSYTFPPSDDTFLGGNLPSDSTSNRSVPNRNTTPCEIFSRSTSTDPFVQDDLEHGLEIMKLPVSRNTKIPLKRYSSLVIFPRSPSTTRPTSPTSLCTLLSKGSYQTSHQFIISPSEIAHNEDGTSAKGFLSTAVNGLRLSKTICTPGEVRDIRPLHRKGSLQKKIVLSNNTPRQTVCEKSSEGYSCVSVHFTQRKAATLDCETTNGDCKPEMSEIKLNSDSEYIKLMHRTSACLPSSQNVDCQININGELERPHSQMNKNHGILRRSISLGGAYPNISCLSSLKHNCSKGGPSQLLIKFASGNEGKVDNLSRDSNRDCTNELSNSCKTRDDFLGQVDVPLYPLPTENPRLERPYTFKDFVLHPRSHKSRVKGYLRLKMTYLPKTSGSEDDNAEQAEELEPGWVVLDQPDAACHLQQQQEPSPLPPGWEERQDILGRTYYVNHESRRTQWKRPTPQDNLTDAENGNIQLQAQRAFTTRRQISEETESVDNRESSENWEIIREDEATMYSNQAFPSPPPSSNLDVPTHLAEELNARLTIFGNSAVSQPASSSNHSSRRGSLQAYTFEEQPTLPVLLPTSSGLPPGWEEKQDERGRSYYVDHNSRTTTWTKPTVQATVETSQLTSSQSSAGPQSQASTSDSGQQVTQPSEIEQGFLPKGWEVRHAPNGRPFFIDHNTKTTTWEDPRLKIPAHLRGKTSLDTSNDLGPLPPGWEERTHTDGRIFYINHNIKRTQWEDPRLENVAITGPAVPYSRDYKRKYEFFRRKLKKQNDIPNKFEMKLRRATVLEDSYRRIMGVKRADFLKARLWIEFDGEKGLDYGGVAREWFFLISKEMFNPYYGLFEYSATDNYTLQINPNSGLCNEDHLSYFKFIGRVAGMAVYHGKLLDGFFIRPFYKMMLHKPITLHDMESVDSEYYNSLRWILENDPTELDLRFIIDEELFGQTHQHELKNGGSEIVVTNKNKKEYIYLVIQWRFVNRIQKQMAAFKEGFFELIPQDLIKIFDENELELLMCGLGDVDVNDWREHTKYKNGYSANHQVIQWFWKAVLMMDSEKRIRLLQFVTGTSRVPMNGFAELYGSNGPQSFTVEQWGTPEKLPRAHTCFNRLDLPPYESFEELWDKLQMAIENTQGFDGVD

effect of a mutation on the interaction	Variant
disrupting interaction	Y49A;L50A

Variants of: B6
Details: with atg13_human ATG13, O75143

effect of a mutation on the interaction	Variant
decreasing interaction	Y49A;L50A

Variants of: B7
Details: with atga1_human ATG101, Q9BSB4

effect of a mutation on the interaction	Variant
increasing interaction	Y49A;L50A
increasing interaction	R71A
